Data from patent US20210032365A1 (Chugai, published 2021).
Residue numbers refer to the chain shown, from its start. Names may count otherwise. Blank lines part the entries; values can stand above or below the binder they belong to.

How the values were obtained:
[1] = biological target: T1, human C1s (human, UniProt P09871 16-688); experiment: SPR (Biacore T200, 37C), Ab captured on protein A/G; pH 7.4, 1.2 mM Ca
T1 construct: Analyte in the Biacore assays; also called hC1s; serum-derived human C1s (CompTech)
T1 sequence: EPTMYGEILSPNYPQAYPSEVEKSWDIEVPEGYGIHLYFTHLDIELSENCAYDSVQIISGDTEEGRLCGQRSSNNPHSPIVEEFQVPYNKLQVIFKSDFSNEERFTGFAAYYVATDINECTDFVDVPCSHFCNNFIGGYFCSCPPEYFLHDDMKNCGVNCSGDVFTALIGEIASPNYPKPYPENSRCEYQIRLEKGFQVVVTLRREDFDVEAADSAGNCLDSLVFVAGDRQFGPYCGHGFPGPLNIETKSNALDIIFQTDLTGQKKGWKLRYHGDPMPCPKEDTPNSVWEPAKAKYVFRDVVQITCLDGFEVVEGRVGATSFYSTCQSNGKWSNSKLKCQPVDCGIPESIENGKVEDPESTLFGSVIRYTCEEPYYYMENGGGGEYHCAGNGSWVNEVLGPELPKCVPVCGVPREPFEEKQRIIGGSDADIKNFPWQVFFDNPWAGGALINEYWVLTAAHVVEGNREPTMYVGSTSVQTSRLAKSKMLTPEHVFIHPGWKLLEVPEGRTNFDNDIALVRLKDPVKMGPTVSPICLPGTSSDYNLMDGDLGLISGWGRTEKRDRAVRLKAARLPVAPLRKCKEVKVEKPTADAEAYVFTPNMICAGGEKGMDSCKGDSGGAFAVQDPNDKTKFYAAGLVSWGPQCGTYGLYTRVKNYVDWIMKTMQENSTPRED
Description: (§1) All variants were transiently expressed and purified by the method described above. The binding affinity of each histidine-substituted variant at pH 7.4 and pH 5.8 was determined at 37 degrees C. using Biacore T200 instrument (GE Healthcare). Recombinant Protein A/G (Pierce) was immobilized onto all flow cells of a CM4 sensor chip using an amine coupling kit (GE Healthcare). Antibodies and analytes were prepared in 7(+) buffer (20 mM ACES, 150 mM NaCl, 1.2 mM CaCl2, 0.05% Tween 20, 0.005% NaN3, pH 7.4), 5(+) buffer (20 mM ACES, 150 mM NaCl, 1.2 mM CaCl2, 0.05% Tween 20, 0.005% NaN3, pH 5.8), or 5(−) buffer (20 mM ACES, 150 mM NaCl, 3 micro M CaCl2, 0.05% Tween 20, 0.005% NaN3, pH 5.8). Each antibody was captured onto the sensor surface by protein A/G. Antibody capture levels were aimed at 200 resonance unit (RU). Serum-derived human C1s (CompTech) or recombinant C1s prepared in EXAMPLE 1 was injected at 50 nM, followed by dissociation. The sensor surface was regenerated in each cycle with 10 mM Glycine-HCl, pH 1.5. […] The ratio of KD 5.8+ to KD 7.4+(“KD 5+/7+”) and that of KD 5.8− to KD 7.4+(“KD 5−/7+”) were calculated. When the KD 5+/7+ or KD 5−/7+ of a variant is larger than that of the parent antibody IPN009VH2-SG4GK/IPN009VK3-SK1, that variant is considered to be “pH”- or “pH and Ca”-dependent, respectively. When binding response in 5(+) buffer and/or in 5(−) buffer of a variant is much lower than that of IPN09VH2/IPN009VK3, that variant is also considered as “pH”- and/or “pH and Ca”-dependent. Therefore, such mutations are effective to generate “pH”- and/or “pH and Ca”-dependent antibody. To further enhance “pH” and/or “pH and Ca” dependency, a combination of histidine mutations was conducted. Antibodies with combinations of histidine mutations were evaluated using Biacore by the method described above.

[2] = biological target: T1, human C1s; experiment: SPR; KD at pH 5.8 (1.2 mM Ca) over KD at pH 7.4 (1.2 mM Ca)
Description: as §1

[3] = biological target: T1, human C1s; experiment: SPR; KD at pH 5.8 (3 uM Ca) over KD at pH 7.4 (1.2 mM Ca)
Description: as §1

[4] = biological target: T1, human C1s; experiment: SPR (Biacore T200, 37C), Ab captured on protein A/G; pH 5.8, 1.2 mM Ca
Description: as §1

[5] = biological target: T1, human C1s; experiment: SPR (Biacore T200, 37C), Ab captured on protein A/G; pH 5.8, 3 uM Ca
Description: as §1

[6] = biological target: T2, human C1s (human, UniProt P09871 16-688); experiment: SPR, Ab captured; pH 5.8, 3 uM Ca
T2 construct: also called hC1s; serum-derived human C1s (CompTech)
T2 sequence: T1 sequence
Description: as §1

[7] = biological target: T2, human C1s; experiment: SPR, Ab captured; pH 7.4, 1.2 mM Ca
Description: as §1

[8] = biological target: T2, human C1s; experiment: SPR; KD pH 5.8 1.2 mM Ca / KD pH 7.4 1.2 mM Ca
Description: as §1

[9] = biological target: T2, human C1s; experiment: SPR; KD pH 5.8 3 uM Ca / KD pH 7.4 1.2 mM Ca
Description: as §1

[10] = biological target: T2, human C1s; experiment: SPR, Ab captured; pH 5.8, 1.2 mM Ca
Description: as §1

koff [1]: 0.000548 s⁻¹
kon [1]: 654000 M⁻¹ s⁻¹
KD 5(+)/7(+) [2]: 23.3
KD 5(-)/7(+) [3]: 9.5
koff [4]: 0.0143 s⁻¹
kon [4]: 732000 M⁻¹ s⁻¹
koff [5]: 0.00401 s⁻¹
kon [5]: 504000 M⁻¹ s⁻¹
B1: C1_IPN92H0288-SG4GK/IPN93L0058-SK1 (antibody, human IgG4 S228P, kappa)
heavy: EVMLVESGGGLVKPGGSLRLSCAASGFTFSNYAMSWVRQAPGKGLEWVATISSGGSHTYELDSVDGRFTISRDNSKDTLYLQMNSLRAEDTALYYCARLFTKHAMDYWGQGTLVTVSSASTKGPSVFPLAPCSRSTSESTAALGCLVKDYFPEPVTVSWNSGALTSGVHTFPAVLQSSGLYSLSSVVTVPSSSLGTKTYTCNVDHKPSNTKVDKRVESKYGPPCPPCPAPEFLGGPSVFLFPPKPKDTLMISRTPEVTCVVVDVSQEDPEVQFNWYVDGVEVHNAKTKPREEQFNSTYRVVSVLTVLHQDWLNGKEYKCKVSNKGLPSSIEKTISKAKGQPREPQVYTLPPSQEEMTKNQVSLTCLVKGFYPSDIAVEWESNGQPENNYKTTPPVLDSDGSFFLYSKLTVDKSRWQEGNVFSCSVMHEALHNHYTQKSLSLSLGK
light: QIVLTQSPATLSLSPGERATLSCTASSEVSSSYLHWYQQKPGKAPKLWIYSTSNLASGVPSRFSGSGSGTDYTLTISSLQPEDFATYYCHQYYRLHPITFGQGTKLEIKRTVAAPSVFIFPPSDEQLKSGTASVVCLLNNFYPREAKVQWKVDNALQSGNSQESVTEQDSKDSTYSLSSTLTLSKADYEKHKVYACEVTHQGLSSPVTKSFNRGEC
notes: also called IPN92H0288/IPN93L0058

koff [6]: 0.00635 s⁻¹
kon [6]: 664000 M⁻¹ s⁻¹
koff [7]: 0.00026 s⁻¹
kon [7]: 328000 M⁻¹ s⁻¹
KD 5(+)/7(+) [8]: 0.7
KD 5(-)/7(+) [9]: 12.1
koff [10]: 0.000372 s⁻¹
kon [10]: 722000 M⁻¹ s⁻¹
B2: C1_IPN92H0033-SG4GK/IPN009VK3-SK1 (antibody, human IgG4 S228P, kappa)
heavy: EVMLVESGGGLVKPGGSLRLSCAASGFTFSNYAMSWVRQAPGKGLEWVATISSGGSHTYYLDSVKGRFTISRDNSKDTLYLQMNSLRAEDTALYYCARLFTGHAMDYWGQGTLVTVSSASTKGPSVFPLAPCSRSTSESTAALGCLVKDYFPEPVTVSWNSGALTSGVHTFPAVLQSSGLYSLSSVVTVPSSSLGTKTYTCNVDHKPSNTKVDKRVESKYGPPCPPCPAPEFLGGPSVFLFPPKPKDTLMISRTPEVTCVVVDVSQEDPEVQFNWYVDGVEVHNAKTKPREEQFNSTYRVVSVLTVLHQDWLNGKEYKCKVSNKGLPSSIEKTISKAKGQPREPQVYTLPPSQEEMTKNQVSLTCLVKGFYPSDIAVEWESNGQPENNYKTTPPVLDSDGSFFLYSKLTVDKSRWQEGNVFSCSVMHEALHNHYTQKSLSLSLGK
light: B1 light with E28S, H96P
notes: VH = IPN009VH2 with Y99H (Kabat); also called IPN92H0033/IPN009VK3

koff [1]: 0.000863 s⁻¹
kon [1]: 446000 M⁻¹ s⁻¹
KD 5(+)/7(+) [2]: 10.1
KD 5(-)/7(+) [3]: 2.56
koff [4]: 0.0142 s⁻¹
kon [4]: 731000 M⁻¹ s⁻¹
koff [5]: 0.00196 s⁻¹
kon [5]: 396000 M⁻¹ s⁻¹
B3: C1_IPN92H0307-SG4GK/IPN93L0058-SK1 (antibody, human IgG4 S228P, kappa)
heavy: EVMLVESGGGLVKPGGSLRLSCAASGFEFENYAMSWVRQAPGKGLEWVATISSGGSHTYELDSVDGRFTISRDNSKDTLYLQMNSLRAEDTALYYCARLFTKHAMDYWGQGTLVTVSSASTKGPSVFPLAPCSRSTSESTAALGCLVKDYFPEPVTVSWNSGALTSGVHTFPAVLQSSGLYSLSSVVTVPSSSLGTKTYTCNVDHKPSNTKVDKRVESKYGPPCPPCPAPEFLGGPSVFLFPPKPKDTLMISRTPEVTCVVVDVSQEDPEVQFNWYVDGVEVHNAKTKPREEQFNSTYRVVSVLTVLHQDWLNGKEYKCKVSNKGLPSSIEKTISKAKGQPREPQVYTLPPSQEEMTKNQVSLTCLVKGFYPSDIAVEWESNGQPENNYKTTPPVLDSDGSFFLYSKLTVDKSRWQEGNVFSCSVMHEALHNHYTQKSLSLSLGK
light: B1 light
notes: also called IPN92H0307/IPN93L0058

More lines, now with the values behind:

B4: C1_IPN009VH2-SG4GK/IPN93L0021-SK1 (antibody, human IgG4 S228P, kappa, name in Kabat numbering)
heavy: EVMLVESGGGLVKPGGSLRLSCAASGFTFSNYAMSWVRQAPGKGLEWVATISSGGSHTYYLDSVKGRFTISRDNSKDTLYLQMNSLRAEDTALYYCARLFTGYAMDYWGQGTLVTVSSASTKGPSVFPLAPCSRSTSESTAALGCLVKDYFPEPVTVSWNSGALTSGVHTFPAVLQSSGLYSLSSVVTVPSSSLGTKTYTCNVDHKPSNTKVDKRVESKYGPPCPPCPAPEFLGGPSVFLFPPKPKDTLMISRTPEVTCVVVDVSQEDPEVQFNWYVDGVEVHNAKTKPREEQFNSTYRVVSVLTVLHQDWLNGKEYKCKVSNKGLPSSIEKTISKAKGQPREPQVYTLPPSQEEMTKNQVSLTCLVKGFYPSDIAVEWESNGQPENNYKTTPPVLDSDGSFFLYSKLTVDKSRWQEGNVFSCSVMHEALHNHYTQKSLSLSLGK
light: B1 light with E28S, Y93H, H96P
notes: also called IPN009VH2/IPN93L0021
Kd [6]: 9.54 nM
koff [6]: > 0.1 s⁻¹
Kd [7]: 2.68 nM
koff [7]: 0.000898 s⁻¹
kon [7]: 335000 M⁻¹ s⁻¹
KD 5(+)/7(+) [8]: 1.2
KD 5(-)/7(+) [9]: 3.6
Kd [10]: 3.21 nM
koff [10]: 0.00203 s⁻¹
kon [10]: 632000 M⁻¹ s⁻¹

B5: C1_IPN009VH2-SG4GK/IPN93L0023-SK1 (antibody, human IgG4 S228P, kappa, name in Kabat numbering)
heavy: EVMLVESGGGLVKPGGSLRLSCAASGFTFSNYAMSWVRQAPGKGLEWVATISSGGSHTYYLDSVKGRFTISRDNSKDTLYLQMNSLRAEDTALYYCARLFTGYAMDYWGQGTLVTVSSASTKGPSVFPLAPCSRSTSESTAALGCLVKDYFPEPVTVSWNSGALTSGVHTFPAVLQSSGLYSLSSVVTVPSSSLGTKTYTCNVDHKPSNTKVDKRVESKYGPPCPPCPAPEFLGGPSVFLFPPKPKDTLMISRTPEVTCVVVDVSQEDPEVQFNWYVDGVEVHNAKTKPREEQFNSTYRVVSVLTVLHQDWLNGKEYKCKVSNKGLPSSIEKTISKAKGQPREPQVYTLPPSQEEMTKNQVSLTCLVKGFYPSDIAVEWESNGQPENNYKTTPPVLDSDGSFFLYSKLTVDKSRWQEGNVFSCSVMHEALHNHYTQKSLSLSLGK
light: B1 light with E28S, L95H, H96P
notes: also called IPN009VH2/IPN93L0023
Kd [6]: 13.8 nM
koff [6]: 0.092 s⁻¹
kon [6]: 6.67e+06 M⁻¹ s⁻¹
Kd [7]: 2.18 nM
koff [7]: 0.000725 s⁻¹
kon [7]: 332000 M⁻¹ s⁻¹
KD 5(+)/7(+) [8]: 0.8
KD 5(-)/7(+) [9]: 6.3
Kd [10]: 1.83 nM
koff [10]: 0.00131 s⁻¹
kon [10]: 716000 M⁻¹ s⁻¹
